Numbering of substitutions follows the chain as printed.
Assays:
Assay type in all cases: binding
[1] = target: T1, RGS4 (Rattus norvegicus, UniProt P49799); assay: FCPIA (flow cytometry protein interaction assay), RGS4-Gαo interaction, wild type RGS4 (MBP-RGS4Δ51N); settings: wild type RGS4Δ51N, calculated in the FCPIA; read-out: Gαo affinity
T1 construct: made in house
T1 sequence (P49799 52-205 limits assumed): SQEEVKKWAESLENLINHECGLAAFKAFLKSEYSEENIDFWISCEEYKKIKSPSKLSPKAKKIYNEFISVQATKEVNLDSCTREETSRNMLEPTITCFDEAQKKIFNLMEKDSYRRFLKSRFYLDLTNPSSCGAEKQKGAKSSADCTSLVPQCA

[2] = target: RGS4 no Cys in C-terminus; assay: FCPIA, RGS4 mutant with no Cys in C-terminus; settings: read-out: Gαo affinity
Description: (§1) Since 5nd forms an irreversible, DTT-sensitive bond with RGS, it was suspected that it binds covalently to a cysteine in the protein through a disulfide bridge. Indeed, removal of all 7 cysteines (termed the -7C mutant) from RGS4 greatly diminished 5nd activity (logIC50 of -3.24 ± 0.14 for -7C vs. -4.36 ± 0.02 for wild type) (Figure 5, Table 2).
(§2) Figure 5 Dose curves of 5nd on various RGS4 cysteine mutants. Various concentrations of 5nd were tested for disruption of the RGS4-Gαo interaction for C95A (5 nM), or […], C71A (5nM) or C148A (5nM) (B), A95C in the -7C (5nM), or A132C in the -7C (5nM) (C), A71C in the -7C (5nM), or A148C in the -7C (5nM) (D) or the mutant with no cysteines in the domain (20 nM) or the C-terminus (20 nM) (E) in the FCPIA (mean ± S.E.M., n ≥ 3).
(§3) Proteins were expressed, purified and labeled as described previously. The mutagenesis was done using the "QuickChange Multi Site-Directed Mutagenesis Kit" from Stratagene according to the manufacturer's protocol. The construct of RGS4 used in these studies is a maltose binding protein (MBP-) fusion protein of the RGS4 sequence from which the amphipathic N-terminal helix has been removed (i.e. MBP-RGS4Δ51N). For simplicity in the text, this will be referred to as RGS4. […]

[3] = target: T2, RGS4 C132A (Rattus norvegicus, UniProt P49799, C132A); assay: FCPIA, RGS4 cysteine mutant C132A; settings: read-out: Gαo affinity
T2 construct: made in house
T2 sequence (P49799 52-205 C132A limits assumed): T1 sequence (P49799 52-205 limits assumed) with C81A
Description: as §2
(§4) Proteins were expressed, purified and labeled as described previously. The mutagenesis was done using the "QuickChange Multi Site-Directed Mutagenesis Kit" from Stratagene according to the manufacturer's protocol. The construct of RGS4 used in these studies is a maltose binding protein (MBP-) fusion protein of the RGS4 sequence from which the amphipathic N-terminal helix has been removed (i.e. MBP-RGS4Δ51N). For simplicity in the text, this will be referred to as RGS4. All other RGS proteins were human sequences and were used as Mpb fusions: RGS7 RGS domain (aa: 305–453), RGS8 full length, RGS16 full length, and RGS19ΔC11 (amino acids 1–209). To cleave RGS4Δ51N from the MBP-His6 construct for MS analysis, MBP-His6-RGS4Δ51N was treated with 15% MBP-His6-TEV protease S219V [11] for 22 hours at 4°C and purified over a Ni-NTA column.
(§5) FCPIA was performed as previously published.

[4] = target: T3, RGS4 A71C, -7C (Rattus norvegicus, UniProt P49799, C132A/C148A/C183A/C197A/C204A/C95A); assay: FCPIA, RGS4 A71C in the -7C; settings: read-out: Gαo affinity
T3 construct: made in house
Description: as §2
(§6) The previous experiments tested which cysteines are necessary for inhibition by 5nd. In an alternative approach, we added cysteines back to the -7C mutant to determine which might be sufficient for 5nd activity. […] Furthermore, Cys132 is involved in the actions but this is clearly not sufficient to explain them. Thus it is concluded that 5nd is at least partially non-selective in its cysteine modification.
as §3

[5] = target: T4, RGS4 A132C, -7C (Rattus norvegicus, UniProt P49799, C148A/C183A/C197A/C204A/C71A/C95A); assay: FCPIA, RGS4 A132C in the -7C; settings: read-out: Gαo affinity
T4 construct: made in house
Description: as §2, §6, §3

[6] = target: T5, RGS4 A148C, -7C (Rattus norvegicus, UniProt P49799, C132A/C183A/C197A/C204A/C71A/C95A); assay: FCPIA, RGS4 A148C in the -7C; settings: read-out: Gαo affinity
T5 construct: made in house
T5 sequence (P49799 52-205 C71A/C95A/C132A/C183A/C197A/C204A): T1 sequence (P49799 52-205 limits assumed) with C20A, C44A, C81A, C132A, C146A, C153A
Description: as §2, §6, §3

[7] = target: T6, RGS4 C71A (Rattus norvegicus, UniProt P49799, C71A); assay: FCPIA, RGS4 cysteine mutant C71A; settings: read-out: Gαo affinity
T6 construct: made in house
T6 sequence (P49799 52-205 C71A limits assumed): T1 sequence (P49799 52-205 limits assumed) with C20A
Description: as §2, §4, §5

[8] = target: T7, RGS4 A95C, -7C (Rattus norvegicus, UniProt P49799, C132A/C148A/C183A/C197A/C204A/C71A); assay: FCPIA, RGS4 A95C in the -7C; settings: read-out: Gαo affinity
T7 construct: made in house
Description: as §2, §6, §3

[9] = target: T8, RGS4 -7C (Rattus norvegicus, UniProt P49799, C132A/C148A/C183A/C197A/C204A/C71A/C95A); assay: FCPIA, RGS4 -7C mutant (all 7 cysteines removed); settings: read-out: Gαo affinity
T8 construct: made in house
Description: as §1, §2, §3

[10] = target: T9, RGS4 C95A (Rattus norvegicus, UniProt P49799, C95A); assay: FCPIA, RGS4 cysteine mutant C95A; settings: read-out: Gαo affinity
T9 construct: made in house
T9 sequence (P49799 52-205 C95A limits assumed): T1 sequence (P49799 52-205 limits assumed) with C44A
Description: as §2, §4, §5

[11] = target: T10, RGS4 no Cys in RGS domain (Rattus norvegicus, UniProt P49799, C132A/C148A/C71A/C95A); assay: FCPIA, RGS4 mutant with no Cys in RGS domain; settings: no Cys in RGS domain; read-out: Gαo affinity
T10 construct: made in house
Description: as §1, §2, §3

[12] = target: T11, RGS4 C148A (Rattus norvegicus, UniProt P49799, C148A); assay: FCPIA, RGS4 cysteine mutant C148A; settings: read-out: Gαo affinity
T11 construct: made in house
Description: as §2, §4, §5

T7 sequence (P49799 52-205 C71A/C132A/C148A/C183A/C197A/C204A): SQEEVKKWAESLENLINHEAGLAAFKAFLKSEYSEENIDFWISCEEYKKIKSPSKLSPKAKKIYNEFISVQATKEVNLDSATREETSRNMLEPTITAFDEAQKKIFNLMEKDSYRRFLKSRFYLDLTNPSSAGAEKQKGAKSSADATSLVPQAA
T3 sequence (P49799 52-205 C95A/C132A/C148A/C183A/C197A/C204A): as the sequence (P49799 52-205 C71A/C132A/C148A/C183A/C197A/C204A) above, with A20C, C44A counted along it
T10 sequence (P49799 52-205 C71A/C95A/C132A/C148A limits assumed): as the sequence (P49799 52-205 C71A/C132A/C148A/C183A/C197A/C204A) above, with C44A, A132C, A146C, A153C counted along it
T11 sequence (P49799 52-205 C148A limits assumed): as the sequence (P49799 52-205 C71A/C132A/C148A/C183A/C197A/C204A) above, with A20C, A81C, A132C, A146C, A153C counted along it
T8 sequence (P49799 52-205 C71A/C95A/C132A/C148A/C183A/C197A/C204A): as the sequence (P49799 52-205 C71A/C132A/C148A/C183A/C197A/C204A) above, with C44A counted along it
T4 sequence (P49799 52-205 C71A/C95A/C148A/C183A/C197A/C204A): as the sequence (P49799 52-205 C71A/C132A/C148A/C183A/C197A/C204A) above, with C44A, A81C counted along it

B1: Gαo: Alexa Fluor 532-labeled Gα subunit, binding partner of RGS proteins in the FCPIA (protein)
chain: MGCTLSAEERAALERSKAIEKNLKEDGISAAKDVKLLLLGAGESGKSTIVKQMKIIHEDGFSGEDVKQYKPVVYSNTIQSLAAIVRAMDTLGVEYGDKERKADSKMVCDVVSRMEDTEPFSAELLSAMMRLWGDSGIQECFNRSREYQLNDSAKYYLDSLDRIGAADYQPTEQDILRTRVKTTGIVETHFTFKNLHFRLFDVGGQRSERKKWIHCFEDVTAIIFCVALSGYDQVLHEDETTNRMHESLMLFDSICNNKFFIDTSIILFLNKKDLFGEKIKKSPLTICFPEYPGSNTYEDAAAYIQTQFESKNRSPNKEIYCHMTCATDTNNIQVVFDAVTDIIIANNLRGCGLY
modifications: Alexa Fluor 532 label (sites not given)
**Q.** For B1, which Kd [1] is on record?
**A.** 11.6 ± 1.4 nM

**Q.** What about the Kd [2] of the same molecule?
**A.** 5 ± 0.7 nM

**Q.** And the Kd [3]?
**A.** 7.9 ± 3.1 nM

**Q.** And the Kd [4]?
**A.** 9.2 ± 2 nM

**Q.** And the Kd [5]?
**A.** 12.5 ± 1 nM

**Q.** What about the Kd [6] of the same molecule?
**A.** 5.7 ± 0.2 nM

**Q.** What about the Kd [7] of the same molecule?
**A.** 12.2 ± 1.8 nM

**Q.** And the Kd [8]?
**A.** 12 ± 2 nM

**Q.** What about the Kd [9] of the same molecule?
**A.** 8.3 ± 1 nM

**Q.** And the Kd [10]?
**A.** 8.17 ± 1.5 nM

**Q.** And the Kd [11]?
**A.** 3.9 ± 0.8 nM

**Q.** And the Kd [12]?
**A.** 6.84 ± 1 nM
